# According to US11066655B2, “RNA polymerase, methods of purification and methods of use” (President and Fellows of Harvard College, priority 2013, dated 2021):
# How the values were obtained:
# Format in all cases: biochemical
# pET24-S5RNAP DNA = test: Catalytic efficiency at various ribonucleotide concentrations (filter-binding assay); conditions: for kcat/KmGTP / Km / kcat: GTP varied; for Km / KmGTP (results obtained with UTP): other NTPs 1 mM; for Km: 24° C., 5 min, read-out: apparent Km for GTP; for Km / kcat: 160 mM KCl for Syn5 RNAP, omitted for T7 RNAP; for kcat/KmGTP (results obtained with UTP) / kcatGTP (results obtained with UTP) / KmGTP (results obtained with UTP): UTP varied; for kcatGTP (results obtained with UTP) / KmGTP (results obtained with UTP): FIG. 7C/7D
# Method: FIGS. 7A-7D depict a comparison of transcription efficiency of Syn5 and T7 RNAP at various ribonucleotide concentrations. A) Incorporation of NMP by Syn5 RNAP at various GTP concentrations. B) Incorporation of NMP by T7 RNAP at various GTP concentrations. C) Incorporation of NMP by Syn5 RNAP at various UTP concentrations. D) Incorporation of NMP by T7 RNAP at various UTP concentrations. Varied ribonucleotide concentrations were 7.8, 15.6, 31.3, 62.5, 125, 250, 500, 1000 µM while other NTPs were all at 1 mM, RNAP and template were both 20 nM, and the reaction time was 5 min at 24° C. 160 mM KCl was added for Syn5 RNAP reactions.
# For the assays described in FIG. 7, reaction mixtures contained 40 mM Tris-HCl (pH 8.0), 6 mM MgCl2, 2 mM spermidine, 10 mM DTT, 20 nM Syn5 or T7 RNAP, 20 nM pET24-S5RNAP DNA, 1 mM ^3H-ATP (20 cpm/pmole), CTP, UTP (or GTP), and varying amounts of GTP (or UTP). 160 mM KCl was added for the Syn5 RNAP reactions. After various times the reactions were stopped by the addition of 20 mM EDTA. 4 µl of the mixtures were then loaded onto Whatman DE81 filter paper disks and the disks were washed to remove the unincorporated ^3H-ATP. The amount of insoluble ^3H-AMP, corresponding to nucleotides incorporated into newly synthesized RNA, was measured using a scintillation counter. The data were analyzed using Prism software.
# pUC19-S5P or pUC19-T7P = test: Processivity gel assay, rolling-circle synthesis on single-promoter plasmids
# Method: FIGS. 9A-9H depict the processivity of Syn5 and T7 RNA polymerases. A) Agarose gel showing RNA synthesis by previously purified Syn5 RNA polymerase, newly purified Syn5 RNA polymerase with the improved procedure, and T7 RNA polymerase on a plasmid template containing a single cognate promoter (as shown in the schematic). B) Product as shown in A) by S5N2 RNA polymerase was incubated with 1 U/[…]1 RNase I or DNase I to confirm its RNA nature. C) Effect of increasing KCl concentration on Syn5 RNA polymerase transcription. D) Products by Syn5 and T7 RNAP in a rolling-circle manner were analyzed at denaturing condition. E) Same assay as D) except that the template plasmids were linearized as shown in the schematic. F) & G) Decreasing the concentration of T7 (F) and Syn5 (G) RNA polymerase reduced the abortive products due to clash of RNA polymerases at promoter region. H) RNA polymerase promoter distribution on coliphage T7 and cyanophage Syn5 genomes.
# DNA templates for transcription assays were either plasmids or dsDNA fragments made of synthesized oligonucleotides. To test the processivity of Syn5 and T7 RNAP, a single Syn5 or T7 promoter plus 3 guanosine downstream of the promoter (Syn5 5′-ATTGGGCACCCGTAAGGG-3′ (SEQ ID NO:1) or T7 5′-[…]-3′) (SEQ ID NO:2) was inserted between the BamHI and XbaI sites of plasmid pUC19 to form pUC19-S5P or pUC19-T7P. The templates for run-off tRNA^Arg synthesis were formed by annealing of two complementary synthesized DNA oligos of which sequences are as following:
# For the results shown in FIG. 9, reaction mixtures (10 μl) contained 40 mM Tris-HCl pH 8.0, 6 mM MgCl2, 2 mM spermidine, 10 mM DTT, 600 µM[…]P, GTP, CTP, and UTP, 1.5 U/µl RNaseOUT™ recombinant ribonuclease inhibitor, 0.04 U/µl yeast inorganic pyrophosphatase, 10 nM pUC19-Syn5P3G or pUC19-T7P3G, 10 nM Syn5 or T7 RNAP and various amount of KCl as noted in the figure or described in the figure legend. After 1 hr incubations at RT, one unit of DNase I was added to each reaction mixture and incubated for an additional 15 min at 37° C. to remove the DNA templates. For FIGS. 8A-8C, 2 µl reaction mixture was directly mixed with native loading dye and loaded onto 1.6% TAE agarose gel. For FIGS. 8D-8F, RNA products were purified with RNA Clean & Concentrator™-5 kit into a final solution of 10 µl and 5 µl each was mixed with 5 µl denaturing RNA loading dye (New England Biolabs). Samples were then heated at 65° C. for 5 min and loaded onto 1.6% TAE agarose gel. RNA products were visualized by ethidium bromide staining.
# [1] = test system: dsDNA template S5PhmttRNAProUGG; test: Synthesis of human mt tRNAPro, short RNA, optimized conditions
# [2] = test system: template for a 37 nt RNA or a 2.7 knt RNA; test: 2′-F-dNTP incorporation with mixed cofactor Mg2+/Mn2+; conditions: mixed cofactors Mg2+/Mn2+
# From the text: FIG. 25A depicts a gel showing that WT Syn5 polymerase incorporates 2′-F-C/UTP and all four 2′-F′dNTP in the presence of mixed cofactor Mg^2+/Mn^2+.
# FIG. 25B depicts a gel comparing 2′-F′dNTP incorporation using Mg^2+ versus the mixed cofactor.
# According to certain aspects of the invention, co-factors such as Mg^+2 and Mn^+2 are used to reduce discrimination against 2′-F-dNTP of wild-type Syn5 RNA polymerase. The optimum cofactor concentration of Mg^2+ or Mn^2+ is similar for Syn5 RNA polymerase, and Mg^2+ and Mn^2+ are provided as mixed cofactors for the Syn5 RNA polymerase. Without wishing to be bound by scientific theory, a substantial proportion of Syn5 RNA polymerase in the reaction may utilize one Mg^2+ and one Mn^2+ in their active sites for catalysis (based on the two-metal-ion mechanism for polymerase catalysis) so that both high overall yield and low discrimination against 2′-F-dNTP can be achieved with the methods described herein.
# The reaction components were incubated at 37° C. for 4 hrs. 0.4 µl of the reaction mixture were loaded onto 10% TBE gel or 2% agarose gel and stained with ethidium bromide. […] See FIG. 25A lane 5 vs lane 1; FIG. 25B lane 3 vs lane 1). […]
Molecule,kcat/KmGTP (pET24-S5RNAP DNA) [M⁻¹ s⁻¹],Km (pET24-S5RNAP DNA) [µM],kcat (pET24-S5RNAP DNA) [s⁻¹],kcat/KmGTP (results obtained with UTP) (pET24-S5RNAP DNA) [M⁻¹ s⁻¹],kcatGTP (results obtained with UTP) (pET24-S5RNAP DNA) [s⁻¹],KmGTP (results obtained with UTP) (pET24-S5RNAP DNA) [µM],apparent processivity (pUC19-S5P or pUC19-T7P),processivity (pUC19-S5P or pUC19-T7P),length approached by some products (pUC19-S5P or pUC19-T7P; low enzyme concentration) [kilo nt],length of most products (pUC19-S5P or pUC19-T7P; low enzyme concentration),estimated yield of RNA ([1]; 100 µl transcription reaction) [nmole/100 µl],enzyme activity ([1]; at 42° C.),reduction of yield ([1]; final NTP 4 mM instead of 8 mM),RNA with all four 2′-F-dNMPs [2],yield of 2′-F-dCMP/2′-F-dUMP incorporated RNA [2]
"T7 RNAP: RNA polymerase encoded by bacteriophage T7, from New England Biolabs [reference compound]",90000,45.8 ± 9,4.1,290000,6.8,23.3 ± 5.5,,,,,,,,,
"Syn5 RNAP: single subunit DNA-dependent RNA polymerase from marine cyanophage Syn5, amino acid sequence SEQ ID NO:23 (protein, Amino acid sequence of a cyanophage Syn5 RNAP) MSFDLIARQLQRETEAAELARKRLQDARREANERSYASSNIESRKAIATFLDPIAQRIGERLFTLRRGTGAVDAAEVYKHLKNADHHHLALITMKTALDVLGKDPEPQIQQLTTAIGRNIQLELRLTYYAEENPELYKQASRFFHAGTGTRQKATVIKLKFNREGIEWDQWSRVTCHKVGQWLMLAMADVTGWIERATDRTSGGRKTKTRICYSREFLQHRDTILAAAEQLAFCQWPMLCPPIEWSNDHNGGYLSEQIRRVNPLIRKTGPLGTRKQGDIPLAMLNNLQGQAYKVNPEVLDIANHCYESNVTVGKFIRHAPLPVPPSPGEDCTEDQLTAYKRARREAEDFNAQISQKNWRTTEVMYVARKYADEASFWMPASFDYRGRVYFLNTALNPQGTDFDKALLYFAEEGPVNEWWLSFHVATTYGLDKETMVNRVQWARDNHELIDRIASDPVRHTEWHDADEPWCFLAACLEYKACVIDGTKQTSGLPIGIDATCSGLQHLAAMTRCGRTAALVNVTPTDKPADAYKTVAQASLKHLPKEQHEWITRKVTKRPVMCTPYGVTMSSARGYIRDQLVKDGHKEDLRSPGVLNGIVKAIFNEAIPEVIPGPVQVMAWLKRSAGQIIDRGDSTITWTTPSGFEVVQDLKKSKTYEVKTRIMGGARIKLQVGDGFTDEPDRDHHKSALAPNVVHSNDASLLHLTFAFWDKPFTVIHDCVLGRSCDMDQMGSDIRLHFAEMYKADVMQDWADQVGVELPVDLIKNTLDIDSVNQSLYFFS",180000,13.9 ± 5.6,2.5,380000,2.8,7.4 ± 1.5,over 30 kilo nucleotides,"greater than 30,000 nt",~30,over 9 kilo nt,4,very low,approximately 20%,substantial yield,better yield
